Source: article PMC9816786 (2022)

Target: T1, PCSK9 (Homo sapiens (Human), UniProt Q8NBP7)
T1 chain: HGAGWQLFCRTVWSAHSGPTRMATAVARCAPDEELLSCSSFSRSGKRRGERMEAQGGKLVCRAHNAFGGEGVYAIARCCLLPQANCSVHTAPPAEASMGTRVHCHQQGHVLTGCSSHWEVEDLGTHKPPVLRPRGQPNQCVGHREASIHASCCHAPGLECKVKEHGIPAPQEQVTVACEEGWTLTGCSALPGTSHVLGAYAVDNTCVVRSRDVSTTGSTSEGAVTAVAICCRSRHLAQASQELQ
Test: BLI; pH 7.5

B1: CAP1 (protein)
chain: ADMQNLVERLERAVGRLEAVSHTSDMHRGYADSPSKAGAAPYVQAFDSLLAGPVAEYLKISKEIGGDVQKHAEMVHTGLKLERALLVTASQCQQPAENKLSDLLAPISEQIKEVITFREKNRGSKLFNHLSAVSESIQALGWVAMAPKPGPYVKEMNDAAMFYTNRVLKEYKDVDKKHVDWVKAYLSIWTELQAYIKEFHTTGLAWSKTGPVAKELSGLPSGPSAGSCPPPPPPCPPPPPVSTISCSYESASRSSLFAQINQGESITHALKHVSDDMKTHKNPALKAQSGPVRSGPKPFSAPKPQTSPSPKRATKKEPAVLELEGKKWRVENQENVSNLVIEDTELKQVAYIYKCVNTTLQIKGKINSITVDNCKKLGLVFDDVVGIVEIINSKDVKVQVMGKVPTISINKTDGCHAYLSKNSLDCEIVSAKSSEMNVLIPTEGGDFNEFPVPEQFKTLWNGQKLVTTVTEIAG
Q: How did the Kd turn out when B1 was run?
A: Its Kd is 1.36 µM.
